What was measured:
[1] = biological target: N-terminal FLAG-tagged human ROBO1 (pCI-FLAG-hROBO1-transfected HEK293 cells) (human, UniProt Q9Y6N7 58-1651); test: flow cytometry, HEK293 cells transfected with pCI-FLAG-hROBO1, anti-mouse IgG FITC; control histogram IgG
Experimental: (§1) HEK293 cells were inoculated at a concentration of 1.2×10⁶ cells/dish or 1.5×10⁶ cells/dish to a 60-mm dish (manufactured by Corning Inc.) and cultured overnight in a DMEM medium containing 10% FBS at 37° C. under 5% CO₂ conditions. On the next day, the HEK293 cells were transfected with pCI-hROBO4, pCI-FLAG-hROBO1, pCI-hROBO2, or pCI-hROBO3 using FuGENE6 Transfection Reagent and further cultured overnight at 37° C. under 5% CO₂ conditions. On the next day, the expression vector-transfected cells were treated with TrypLE Express (manufactured by Life Technologies Corp.), washed with PBS containing 5% FBS, and then suspended in PBS containing 5% FBS. The obtained cell suspension was used in flow cytometry analysis.
Each cell suspension prepared in 4)-4-1 was centrifuged, and the supernatant was removed. […] Data was analyzed using Flowjo. The histogram of FITC fluorescence intensity was prepared. The antibody was determined to bind in a specific manner when the histogram of MAb1 was shifted to a stronger fluorescence intensity region compared with the histogram of the negative control Mouse IgG1 or Mouse IgG2a. […]

[2] = biological target: T1, N-terminal FLAG-tagged cynomolgus monkey ROBO4, cynoROBO4-1 (pCI-FLAG-cynoROBO4-1) (cynomolgus monkey, UniProt Q8WZ75 28-1007 (human entry)); test: flow cytometry, HEK293 cells transfected with pCI-FLAG-cynoROBO4-1, antibody at 10 µg/mL, anti-mouse IgG FITC; control histogram IgG (Mouse IgG2a)
T1 chain: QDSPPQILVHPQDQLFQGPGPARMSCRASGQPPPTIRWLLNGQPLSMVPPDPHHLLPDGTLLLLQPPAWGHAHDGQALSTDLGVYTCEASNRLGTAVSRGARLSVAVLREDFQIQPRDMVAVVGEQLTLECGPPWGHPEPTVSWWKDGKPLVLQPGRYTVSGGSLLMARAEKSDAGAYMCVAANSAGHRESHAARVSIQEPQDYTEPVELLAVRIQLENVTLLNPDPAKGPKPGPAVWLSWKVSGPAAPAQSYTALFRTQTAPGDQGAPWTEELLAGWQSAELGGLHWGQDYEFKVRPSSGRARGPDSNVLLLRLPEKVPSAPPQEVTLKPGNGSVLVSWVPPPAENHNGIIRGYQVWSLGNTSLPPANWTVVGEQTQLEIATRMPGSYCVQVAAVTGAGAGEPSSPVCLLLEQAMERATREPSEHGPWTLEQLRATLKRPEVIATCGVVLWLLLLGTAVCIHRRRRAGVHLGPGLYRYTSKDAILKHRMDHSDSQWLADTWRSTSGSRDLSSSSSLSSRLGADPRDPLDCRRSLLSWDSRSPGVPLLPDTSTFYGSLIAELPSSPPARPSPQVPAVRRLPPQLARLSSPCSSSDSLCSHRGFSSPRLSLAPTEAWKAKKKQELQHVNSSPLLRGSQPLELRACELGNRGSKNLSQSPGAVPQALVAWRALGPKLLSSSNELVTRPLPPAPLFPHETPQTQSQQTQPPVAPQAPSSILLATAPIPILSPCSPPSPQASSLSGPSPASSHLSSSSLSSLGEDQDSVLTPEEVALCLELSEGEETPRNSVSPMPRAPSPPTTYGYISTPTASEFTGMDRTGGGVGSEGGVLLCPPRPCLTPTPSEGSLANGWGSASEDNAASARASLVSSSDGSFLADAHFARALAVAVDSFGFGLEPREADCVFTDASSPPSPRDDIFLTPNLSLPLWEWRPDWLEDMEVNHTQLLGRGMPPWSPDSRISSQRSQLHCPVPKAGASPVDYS
Experimental: as §1, with “of” for “of 1.2×10⁶ cells/dish or”, “pCI-mROBO4, pCI-raROBO4, pCI-FLAG-cynoROBO4-1, pCI-FLAG-cynoROBO4-2, pCI-hROBO1,” for “pCI-FLAG-hROBO1,”
Each cell suspension prepared in 4)-3-1 was centrifuged, and the supernatant was removed. Then, MAb1 or a negative control Mouse IgG2a was added at a concentration of 10 μg/mL to 2×10⁵ expression vector-transfected cells, and the resulting suspension was left standing at 4° C. for 1 hour. […] Data was analyzed using Flowjo. The histogram of FITC fluorescence intensity was prepared. The antibody was determined to bind in a cross-species manner when the histogram of MAb1 was shifted to a stronger fluorescence intensity region compared with the histogram of the negative control Mouse IgG2a.

Chain of N-terminal FLAG-tagged human ROBO1 (pCI-FLAG-hROBO1-transfected HEK293 cells) (Q9Y6N7 other isoform, or with tags, fused parts or gaps): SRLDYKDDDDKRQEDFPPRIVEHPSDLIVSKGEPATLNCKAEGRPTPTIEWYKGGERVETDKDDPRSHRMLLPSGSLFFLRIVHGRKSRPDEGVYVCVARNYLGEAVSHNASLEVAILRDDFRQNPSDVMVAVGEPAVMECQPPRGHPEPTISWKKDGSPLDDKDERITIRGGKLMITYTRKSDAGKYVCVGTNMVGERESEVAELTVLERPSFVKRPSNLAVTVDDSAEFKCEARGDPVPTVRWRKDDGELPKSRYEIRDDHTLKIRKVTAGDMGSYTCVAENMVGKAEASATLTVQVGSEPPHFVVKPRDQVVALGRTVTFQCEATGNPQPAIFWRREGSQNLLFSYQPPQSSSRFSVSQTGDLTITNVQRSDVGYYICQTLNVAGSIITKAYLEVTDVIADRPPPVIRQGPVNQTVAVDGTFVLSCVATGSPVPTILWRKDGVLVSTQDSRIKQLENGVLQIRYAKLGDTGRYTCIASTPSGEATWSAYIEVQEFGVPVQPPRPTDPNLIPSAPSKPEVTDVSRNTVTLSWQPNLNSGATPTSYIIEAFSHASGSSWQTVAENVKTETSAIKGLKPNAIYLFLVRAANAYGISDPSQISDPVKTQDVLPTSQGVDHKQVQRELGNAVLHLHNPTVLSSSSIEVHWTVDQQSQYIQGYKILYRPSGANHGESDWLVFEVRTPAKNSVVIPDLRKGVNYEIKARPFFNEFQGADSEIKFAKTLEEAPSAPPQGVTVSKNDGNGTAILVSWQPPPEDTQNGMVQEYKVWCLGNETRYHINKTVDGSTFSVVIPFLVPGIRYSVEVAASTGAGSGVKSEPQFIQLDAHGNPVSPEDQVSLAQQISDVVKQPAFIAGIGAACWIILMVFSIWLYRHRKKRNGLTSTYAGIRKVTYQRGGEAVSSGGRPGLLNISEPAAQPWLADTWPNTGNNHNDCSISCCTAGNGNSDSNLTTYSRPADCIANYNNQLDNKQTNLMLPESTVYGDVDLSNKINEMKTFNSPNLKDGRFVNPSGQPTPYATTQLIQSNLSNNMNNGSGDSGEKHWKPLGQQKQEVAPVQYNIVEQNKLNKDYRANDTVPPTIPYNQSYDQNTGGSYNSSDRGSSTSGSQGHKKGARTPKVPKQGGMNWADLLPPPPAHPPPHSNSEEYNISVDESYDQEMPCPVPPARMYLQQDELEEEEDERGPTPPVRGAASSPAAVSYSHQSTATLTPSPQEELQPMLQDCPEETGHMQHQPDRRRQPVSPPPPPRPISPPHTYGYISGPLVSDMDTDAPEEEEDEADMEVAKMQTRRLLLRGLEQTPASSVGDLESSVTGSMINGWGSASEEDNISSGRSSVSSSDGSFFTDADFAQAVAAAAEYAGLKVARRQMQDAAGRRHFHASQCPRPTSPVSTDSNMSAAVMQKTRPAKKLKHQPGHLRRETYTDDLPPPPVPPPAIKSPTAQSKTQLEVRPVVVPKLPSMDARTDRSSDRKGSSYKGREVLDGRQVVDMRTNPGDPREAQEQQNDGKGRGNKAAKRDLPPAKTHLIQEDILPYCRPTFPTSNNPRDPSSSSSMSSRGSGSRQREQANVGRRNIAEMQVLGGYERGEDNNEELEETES

binding result [1]: no binding (tested: 10 µg/mL) | binding result [2]: binds
B1: anti-ROBO4 mouse monoclonal antibody MAb1 (antibody, mouse IgG1, V domains shown)
VH: EVQLVESGGGLVKPGGSLKLSCAASGFTFSTYAMSWVRQTPEKRLEWVATISNGGTYTYYPDSVKGRFTISRDNAENTLYLQMSSLRSEDTAMYFCARLIYYDYLDYWGHGTTLTVSS
VL: DAVMTQTPLSLPVSLGDQASISCRSSQSLENSNGNTYLNWYFQKPGQSPQLLIYRVSNRFSGVLDRFSGSGSGTDFTLKISRVEAEDFGVYFCLQVTHVPWTFGGGTKLEIKR
notes: Mouse IgG1 (gamma1), kappa light chain, purified from hybridoma supernatant; also called parent antibody MAb1
